pIC50, pKd: −log10 of the molar value.
Legend:
[1] = target: CD94/NKG2A; assay: BLI
Target sequence in this assay (main, as listed by the source): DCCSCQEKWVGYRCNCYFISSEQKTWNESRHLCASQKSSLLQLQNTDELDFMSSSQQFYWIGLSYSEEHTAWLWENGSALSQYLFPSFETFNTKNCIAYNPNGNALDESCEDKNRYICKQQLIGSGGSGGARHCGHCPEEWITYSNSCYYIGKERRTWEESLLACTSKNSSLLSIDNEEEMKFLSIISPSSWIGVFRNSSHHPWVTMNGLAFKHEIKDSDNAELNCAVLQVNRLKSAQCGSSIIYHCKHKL

[2] = target: CD94/NKG2A; assay: reported IC50; reported value
[3] = target: CD94/NKG2A; assay: competitive ELISA (HLA-E tetramer)
Target sequence in this assay (main, as listed by the source): as above

[4] = target: CD94/NKG2A; assay: competitive ELISA (HLA-E tetramer); FIG. 26
Target sequence in this assay (main, as listed by the source): as above

| Substance | pKd [1] | pIC50 [2] | pIC50 [3] | pIC50 [4] |
| --- | --- | --- | --- | --- |
| Mona analog IgG1 (LALA-PG) | 8.36 | – | – | – |
| Monalizumab | – | 8.70 | 8.82 | 9.00 |

Source: US20240415889A1
